Assay [1] deals with endogenous cofilin (human (endogenous in platelets and HUVEC)) (UniProt P23528). Description: cross-linking; intact endothelial cells (HUVEC, also transfected) in suspension, BMOE or BMH 1 mM or DMSO, 37 °C, one hour; Laemmli lysis, SDS-PAGE, immunoblot. For orientation: In western blotting, separated proteins are transferred to a membrane and probed.
Assay [2] has the same target. Description: cross-linking; human washed platelets (resting, or stimulated with thrombin, with or without Y27632) lysed in NP-40 lysis buffer with BMOE or BMH (0.2 mM; 0.1 mM BMOE in Figure 7), 20 minutes on ice; immunoblot.
The target of assay [3] is recombinant (His)6-tagged human cofilin (human) (UniProt P23528). Description: cross-linking; phosphorylated (by GST-LIMK2) and unphosphorylated His-cofilin (16 μg) cross-linked with 2 and 20 mM BMOE.
Assay [4] has the same target. Description: cross-linking; recombinant His-cofilin 10 µM to 40 µM in PBS pH 7.2, BMOE (two fold molar excess) or DMSO, one hour at room temperature; SDS-PAGE, Coomassie blue; oligomers only at >10 µM.

Values joined by “and” are separate entries in the source; they are usually repeats but may differ in a detail not shown here. Equal values may be shown once.

In the case of “endogenous cofilin (from UniProt P23528 1-166) (natural protein)”, the stoichiometry N in assay [1] and in assay [2] was 4 each time.
With “recombinant (His)6-tagged human cofilin (from UniProt P23528 1-166) (natural protein)”, the stoichiometry N is 2 and 3 in assay [3]; 2 and 4 and 5 in assay [4].

What is called stoichiometry N is the number of molecules, sites or subunits per partner or assembly.

Source of the values: PMC3738525.
